Reference: US20230002496A1 (STAIDSON BEIJING BIOPHARMACEUTICALS, published 2023)
Residue numbers refer to the chain shown, from its start. Each block holds one binder with its values, some of them ahead of it.

Target: T1, human GM-CSFRα, full length on cells (human, UniProt P15509 23-400)
T1 sequence: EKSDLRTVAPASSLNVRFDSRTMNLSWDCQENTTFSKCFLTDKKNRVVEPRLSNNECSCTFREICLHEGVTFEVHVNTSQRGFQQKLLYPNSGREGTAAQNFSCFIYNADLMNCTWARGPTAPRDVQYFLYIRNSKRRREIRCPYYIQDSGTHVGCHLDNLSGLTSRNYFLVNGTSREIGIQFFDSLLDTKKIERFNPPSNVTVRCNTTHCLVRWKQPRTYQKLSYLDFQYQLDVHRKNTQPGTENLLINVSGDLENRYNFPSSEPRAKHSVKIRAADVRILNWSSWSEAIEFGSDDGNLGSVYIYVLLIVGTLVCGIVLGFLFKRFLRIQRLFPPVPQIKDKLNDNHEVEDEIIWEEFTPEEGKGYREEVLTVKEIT
Test: cell-based or functional assay

- IC50, TF-1 cell proliferation: 0.142 µg/mL
B2: E35-scFv HT30Y (scFv, V domains shown)
VH: QMQLVQSGAEVKKPGASVKVSCKVSGYTLYELSIHWVRQAPGKGLEWMGGFDPEDGETIYAQKFQGRVTMTGDTSTDTAYLELSSLRSEDTALYYCATGRYTSLATTYGFDYWGQGTLVTVSS
VL: EIVMTQSPATLSLSPGERATLSCRASQSVSSYLAWYQQKPGQAPRLLIYGASSRATGIPDRFSGSGSGTDFTLTISRLEPEDFAVYYCQQYDNWPYTFGQGTKLEIK

- IC50, TF-1 cell proliferation: 0.151 µg/mL
B7: E35-scFv HT30W (scFv, V domains shown)
VH: B2 VH with Y30W
VL: B2 VL

- IC50, TF-1 cell proliferation: 0.054 µg/mL
B9: E35-scFv LS26N (scFv, V domains shown)
VH: B2 VH with Y30T
VL: B2 VL with S26N

- IC50, TF-1 cell proliferation: 0.089 µg/mL
B12: E35-scFv LS26M (scFv, V domains shown)
VH: B2 VH with Y30T
VL: B2 VL with S26M

- IC50, TF-1 cell proliferation: 0.192 µg/mL
B14: E35-scFv HT30Q (scFv, V domains shown)
VH: B2 VH with Y30Q
VL: B2 VL

- IC50, TF-1 cell proliferation: 0.097 µg/mL
B15: E35-scFv LQ27P (scFv, V domains shown)
VH: B2 VH with Y30T
VL: B2 VL with Q27P

- IC50, TF-1 cell proliferation: 0.174 µg/mL
B17: E35-scFv HT30M (scFv, V domains shown)
VH: B2 VH with Y30M
VL: B2 VL

- IC50, TF-1 cell proliferation: 0.126 µg/mL
B18: E35-scFv HT30P (scFv, V domains shown)
VH: B2 VH with Y30P
VL: B2 VL

- IC50, TF-1 cell proliferation: 0.062 µg/mL
B19: E35-scFv LS26A (scFv, V domains shown)
VH: B2 VH with Y30T
VL: B2 VL with S26A

- IC50, TF-1 cell proliferation: 0.069 µg/mL
B20: E35-scFv LS26K (scFv, V domains shown)
VH: B2 VH with Y30T
VL: B2 VL with S26K

- IC50, TF-1 cell proliferation: 0.065 µg/mL
B21: E35-scFv LQ27Y (scFv, V domains shown)
VH: B2 VH with Y30T
VL: B2 VL with Q27Y

- IC50, TF-1 cell proliferation: 0.178 µg/mL
B22: E35-scFv HT30N (scFv, V domains shown)
VH: B2 VH with Y30N
VL: B2 VL

- IC50, TF-1 cell proliferation: 0.325 µg/mL
B25: E35-scFv HT30K (scFv, V domains shown)
VH: B2 VH with Y30K
VL: B2 VL

- IC50, TF-1 cell proliferation: 0.35 µg/mL
B27: E35-scFv HT30R (scFv, V domains shown)
VH: B2 VH with Y30R
VL: B2 VL

- IC50, TF-1 cell proliferation: 0.078 µg/mL
B28: E35-scFv LS26G (scFv, V domains shown)
VH: B2 VH with Y30T
VL: B2 VL with S26G

- IC50, TF-1 cell proliferation: 0.072 µg/mL
B29: E35-scFv LS26R (scFv, V domains shown)
VH: B2 VH with Y30T
VL: B2 VL with S26R

- IC50, TF-1 cell proliferation: 0.158 µg/mL
B30: E35-scFv HT30V (scFv, V domains shown)
VH: B2 VH with Y30V
VL: B2 VL

- IC50, TF-1 cell proliferation: 0.075 µg/mL
B31: E35-scFv LS26Q (scFv, V domains shown)
VH: B2 VH with Y30T
VL: B2 VL with S26Q

- IC50, TF-1 cell proliferation: 0.073 µg/mL
B33: E35-scFv LS26I (scFv, V domains shown)
VH: B2 VH with Y30T
VL: B2 VL with S26I

- IC50, TF-1 cell proliferation: 0.213 µg/mL
B34: E35-scFv HT30S (scFv, V domains shown)
VH: B2 VH with Y30S
VL: B2 VL

- IC50, TF-1 cell proliferation: 0.104 µg/mL
B36: E35-scFv LQ27A (scFv, V domains shown)
VH: B2 VH with Y30T
VL: B2 VL with Q27A

- IC50, TF-1 cell proliferation: 0.114 µg/mL
B39: E35-scFv LS26C (scFv, V domains shown)
VH: B2 VH with Y30T
VL: B2 VL with S26C

- IC50, TF-1 cell proliferation: 0.089 µg/mL
B40: E35-scFv LS26H (scFv, V domains shown)
VH: B2 VH with Y30T
VL: B2 VL with S26H

- IC50, TF-1 cell proliferation: 0.181 µg/mL
B42: E35-scFv HT30L (scFv, V domains shown)
VH: B2 VH with Y30L
VL: B2 VL

- IC50, TF-1 cell proliferation: 0.081 µg/mL
B43: E35-scFv LS26T (scFv, V domains shown)
VH: B2 VH with Y30T
VL: B2 VL with S26T

- IC50, TF-1 cell proliferation: 0.044 µg/mL
B44: E35-scFv LS26L (scFv, V domains shown)
VH: B2 VH with Y30T
VL: B2 VL with S26L

More lines, now with the values behind:

B1: E35-scFv HE31C (scFv, V domains shown)
VH: B2 VH with Y30T, E31C
VL: B2 VL
- IC50, TF-1 cell proliferation: 0.36 µg/mL

B3: E35-scFv HT30D (scFv, V domains shown)
VH: B2 VH with Y30D
VL: B2 VL
- IC50, TF-1 cell proliferation: 0.132 µg/mL

B4: E35-scFv HT28C (scFv, V domains shown)
VH: B2 VH with T28C, Y30T
VL: B2 VL
- IC50, TF-1 cell proliferation: 0.12 µg/mL

B5: E35-scFv HT30A (scFv, V domains shown)
VH: B2 VH with Y30A
VL: B2 VL
- IC50, TF-1 cell proliferation: 0.215 µg/mL

B6: E35-scFv HT28L (scFv, V domains shown)
VH: B2 VH with T28L, Y30T
VL: B2 VL
- IC50, TF-1 cell proliferation: 0.1 µg/mL

B8: E35-scFv HT30G (scFv, V domains shown)
VH: B2 VH with Y30G
VL: B2 VL
- IC50, TF-1 cell proliferation: 0.199 µg/mL

B10: E35-scFv HT28V (scFv, V domains shown)
VH: B2 VH with T28V, Y30T
VL: B2 VL
- IC50, TF-1 cell proliferation: 0.08 µg/mL

B11: E35-scFv HT28S (scFv, V domains shown)
VH: B2 VH with T28S, Y30T
VL: B2 VL
- IC50, TF-1 cell proliferation: 0.11 µg/mL

B13: E35-scFv HT28H (scFv, V domains shown)
VH: B2 VH with T28H, Y30T
VL: B2 VL
- IC50, TF-1 cell proliferation: 0.06 µg/mL

B16: E35-scFv HT28P (scFv, V domains shown)
VH: B2 VH with T28P, Y30T
VL: B2 VL
- IC50, TF-1 cell proliferation: 0.093 µg/mL

B23: E35-scFv HT28A (scFv, V domains shown)
VH: B2 VH with T28A, Y30T
VL: B2 VL
- IC50, TF-1 cell proliferation: 0.13 µg/mL

B24: E35-scFv HT28K (scFv, V domains shown)
VH: B2 VH with T28K, Y30T
VL: B2 VL
- IC50, TF-1 cell proliferation: 0.217 µg/mL

B26: E35-scFv HT28G (scFv, V domains shown)
VH: B2 VH with T28G, Y30T
VL: B2 VL
- IC50, TF-1 cell proliferation: 0.16 µg/mL

B32: E35-scFv HT28N (scFv, V domains shown)
VH: B2 VH with T28N, Y30T
VL: B2 VL
- IC50, TF-1 cell proliferation: 0.17 µg/mL

B35: E35-scFv HT30E (scFv, V domains shown)
VH: B2 VH with Y30E
VL: B2 VL
- IC50, TF-1 cell proliferation: 0.132 µg/mL

B37: E35-scFv HT28M (scFv, V domains shown)
VH: B2 VH with T28M, Y30T
VL: B2 VL
- IC50, TF-1 cell proliferation: 0.11 µg/mL

B38: E35-scFv HT28E (scFv, V domains shown)
VH: B2 VH with T28E, Y30T
VL: B2 VL
- IC50, TF-1 cell proliferation: 0.091 µg/mL

B41: E35-scFv HT28W (scFv, V domains shown)
VH: B2 VH with T28W, Y30T
VL: B2 VL
- IC50, TF-1 cell proliferation: 0.11 µg/mL
